Source: the nanobody polyreactivity screen of Harvey et al. (2022)

Assay: yeast display, Sf9 membrane polyspecificity reagent, FACS + sequencing; frameworks hold sequencing errors
In short: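 Galactose-induced (36–48 hours) yeast carrying a synthetic nanobody display library were exposed to 10% biotinylated, detergent-solubilized Sf9 membrane reagent at 4 °C for 1 hour. FACS followed streptavidin microbead enrichment, using low and high (top ~1%) gates for expression (anti-HA) and reagent binding (streptavidin). Colony PCR, MiSeq 2 × 250 sequencing and CDR-length filtering followed. Labels for polyreactivity reflect the gate of origin.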

Row | Sequence | polyreactivity (PSR sort gate)
1 | QVQLVESGGGLVQAGGRLRISCAASGRIFPYNAMGWYIQAPGKERELVAAINWSGGSTYYADSVKGRFTISRDNAKNTVYLQMNSLKPEDTAVYYCAVKTVRSSSRNYWGQGTQVTVSS | high polyreactivity
2 | QVQLVESGGGLVQAGGRLRISCAASGSIFEGNGMGWYRQAPGKQREFVAAITNRGGSTYYADSVKGRFTISRDNAKNTVYVQMISLKPEDTAVFYCAADWTTNPDYQQSYFVSYEYNYWGHGTQVTVSS | low polyreactivity
3 | QVQLVESGGGLVQAGGRLRISCAATGSTSVRNAMGWSRQGPGKESELVAGISRGGGITYYADSVKGRFTISRDNAKNTVYLQMNILKTEDTAVYYCAAVYYVDYPDGNYEYWGQGTQVTVSS | high polyreactivity
4 | QVQLVESGGGLVQAGGRLRISCADSGSTFQFYALGWYRQAPGKERQLVASIRVRSGTTYYADSVKGRFTISRENAKNTVYLQMTSLKPEDTAVYYCAAGRPFYGRKYDYWGQGTQVTVSS | high polyreactivity
5 | QVQLVESGGGLVQAGGRLRLICAASGFTFGGNVMGWYRQAPGKERELVAAISSSGGSTYYADSVKGRFTISRDNAKNTVYLQMNSLKPEDTAVYYCAKYAVFYQYRYYHWGQGTQVTVSS | high polyreactivity
6 | QVQLVESGGGLVQAGGRLRLICAASGRIFYRNAMGWYRQAPGKERELVAAISYSGGRTYYADSVKGRFTISRDIAKYTVYLQMNRLKPEDTAVYYCAVYGYHEGGYWGQVTQVTVSS | high polyreactivity
7 | QVQLVESGGGLVQAGGRLRLICAASGRTFVVNAMGWYRQAPGQERELVAAITRRAGITYYADSVKGRFTISRDNAKNTVYLQMNSLKPEDTAVYYCAADRSYFPDTRTTYGYNYWGQGTQVTVSS | low polyreactivity
8 | QVQLVESGGGLVQAGGRLRLICAASGSTFYYNALGWYRQAPGKERELVAGISRSGGSTYYADSVKGRFTISRDNAKNTVYLQMNSLKPEDTAVYYCAAKSYAYRWYDYWGQGTQVTVSS | high polyreactivity
9 | QVQLVESGGGLVQAGGRLRLICAASGSTLYSYAMGWYRQAPGKEREFVAAISRRGGSTYYADSVKGRFTISRDNAKNTVYLQMNSLKPEDTAVYYCAARDSSYHWYGYWGQGTQVTVSS | high polyreactivity
10 | QVQLVESGGGLVQAGGRLRLICAASGYTFPLYAMGWYRPAPGKERELVADINIGGASTYYADSVKGRFTISRDNAKNTVELQMNSLKPEDPAVYYCAKEYYDGYFPTFDYDYWGQGTQVTVSS | low polyreactivity
11 | QVQLVESGGGLVQAGGRLRLICSASGRIIKDNAMGWYRQAPGKERELVADISSSGGSTYYADSVKGRFTISRDNAKNTVYLQMNSLKPEDTAVYYFAKYRYPSRLYSFPLGYDYWGQGTQVTLSS | high polyreactivity
12 | QVQLVESGGGLVQAGGRLRLRCAASGIIFTAYVMGWYRQAPGKERELVADITSGDGSTYYADSVKGRFTISRDNAKNTVYLQMNSLKPEDTAVYYCAADYGQLVFDSYRREYDYWGQGTQVTVSS | low polyreactivity
13 | QVQLVESGGGLVQAGGRLRLSCAAAGRTFVLYVMGWYRQAPRKEREFVADINAGGGSTYYADSVKGRFTMSRDNAKNTVYLQMNSLKAEDTAVYYCAASYVRGWKHSLDDYWGQGTQVTVAS | low polyreactivity
14 | QVQLVESGGGLVQAGGRLRLSCAACGIIFLLYAMGWYRQAPGKERELVAAITNGGRTNYADSVQGRFTISRDNAKNTVYLQMNSRKPEDTALYYCNAVLSVPDYTLFDYWGQGTQVTVSS | low polyreactivity
15 | QVQLVESGGGLVQAGGRLRLSCAASGFIFAKYAMGWYRQAPGKERELVAAITSSGVSTYYADSVKGRFTISRDNAKNTVYLQMNSLKPADTAVYYCNARERYSYWGQGTQVTVSS | high polyreactivity
16 | QVQLVESGGGLVQAGGRLRLSCAASGFIFTDNGMGWYRQAPGKERELVAAINSDGSTYYADSVKGRFTISRDNAKNTVYLQMNSLKPEATAVYYCAVDGSITEIYLPGYGYGYWGQGTQVTVSS | low polyreactivity
17 | QVQLVESGGGLVQAGGRLRLSCAASGFPFAVYAMGWYRQAPGKERELVATITSAGSTYYADSVKGRFTISRDTAKNTVYLQRNSLKPEDNEVYYCAAAGTYYRGDYGYWGQGTQVTVSS | low polyreactivity
18 | QVQLVESGGGLVQAGGRLRLSCAASGFTFNSYVMGWYRQAPGKERELVAAITRSGDRTYYADSVKGRFTISRDNAKNTVYLQMNSLKPEDTAVYYCAATWSINYYGWYYYWGQGTQVTVSS | high polyreactivity
19 | QVQLVESGGGLVQAGGRLRLSCAASGFTFRAFTMGWYRQAPGKERELVAAITYSGGRTYYADSVKGRFTISRDNAKNTVYLQMNSLKPEDTAVYYCAKRGWALSEYYYWGQGTQVTVSS | high polyreactivity
20 | QVQLVESGGGLVQAGGRLRLSCAASGFTFRYYAMGWSRQAPGKERELVAGISYRGTSTYYADSVKGRFTISRDNAKNTVYLQMNSLKPEDTAVYYCADEVRYDRHDYWGQGTQVTVSS | high polyreactivity
21 | QVQLVESGGGLVQAGGRLRLSCAASGFTFYYKAMGWYRQAPGKEWELVASITWSGGRTYYADSVKGRFTISRDNAKNTVYFQMNSLKPEDTAVYYCNAGYCIGLVAYGYWGQGTQVTVSS | low polyreactivity
22 | QVQLVESGGGLVQAGGRLRLSCAASGIIFTVYAMGWYRQAPGKERELVAAITSSGGRTYYADSVKGRFTISRDNAKNTVYLHMNSLKPEDTAVYYCAARLPGYVRKYDYWGQGTQVTVSS | high polyreactivity

Row | Sequence | polyreactivity (PSR sort gate)
23 | QVQLVESGGGLVQAGGRLRLSCAASGITFDLYAMGWYSQAPGKERELVAAISISSTSTYYADSVKGRFTISRDYEKNTVYLQMNSLKPEDTAVYYCNAVPSSKTFWFDYWGQGTQVTVSS | low polyreactivity
24 | QVQLVESGGGLVQAGGRLRLSCAASGITFTFNAMGWYRQAPGKERELVAAITWSGGSTIYADSVKGRFTFSRDNAKNTVYLQMNSQKPEDTAVYNCARDTELYVRWLDYWGQGSQVTVSS | low polyreactivity
25 | QVQLVESGGGLVQAGGRLRLSCAASGITFYVYAMGWYRQAPGKVREFVAAISTRDGTTYADSVKGRFTISRDNAKNTVYLQMNRLKPEDTAVYFCAAAYYYDGQQGDFDYWGQGTQVTVSS | low polyreactivity
26 | QVQLVESGGGLVQAGGRLRLSCAASGLIFVWYAMGWYRQAPGKERELVAAISTSGGSTYYADSVKGRFTISRDNAKNTVYLQMNSLKPEDTAVYYCAAARRWWPQGYYWGQGTQVTVSS | high polyreactivity
27 | QVQLVESGGGLVQAGGRLRLSCAASGLIILRYTMGWYRQAPGKERELVAVITSGGRTYYADSVKGRFTISRDNAKNTVYLQMNSLKPEDTAVYYCAASVGLRTSFTGGGYWGQGTQVTVSS | high polyreactivity
28 | QVQLVESGGGLVQAGGRLRLSCAASGLNFYLYAMGWYTQAPGKERELVATITSAGRTNSADTVKGRFTISRDNAKNTVYLERNSLKPEYTAVYYCIRDVRFVGPSGFDYWGQGTEVTVSS | high polyreactivity
29 | QVQLVESGGGLVQAGGRLRLSCAASGNIFKRYTMGWYRQAPGKERELVAAISGGDSTNYADSVKGRFTISRDNANNTFYLQMNSLKPEDTAVYYCAAGGLTLWHGYILGYWGQGTQVTVSS | low polyreactivity
30 | QVQLVESGGGLVQAGGRLRLSCAASGRIFDANVMGWYRQAPGKERELVAAISSGGRTKYADSVKGRFTISRDNAKNNVYLQMNSLKPEDTAVYYCAKKHSPLYDYWGQGTQVTVSS | low polyreactivity
31 | QVQLVESGGGLVQAGGRLRLSCAASGRIFFRNTMGWYRQEPGKERQLVAAISGSGGSKYYADSVKGRFTISRDNAKNTVYLQMNSLKPEDTAVYYCAKRWLYPISYDYWGQGTQVTVSS | high polyreactivity
32 | QVQLVESGGGLVQAGGRLRLSCAASGRIFGVYAMGWYRQAPGKEREFVASITRGGGRTYYADSVKGRFTISRDNAKNTVYLQMNSLKPEDTAVYYCNAVVNSYPYYYWGQGTQVTVSS | high polyreactivity
33 | QVQLVESGGGLVQAGGRLRLSCAASGRIFKSYAMGWYRQAPGKERELVATISISGGSTYYADSVKGRFTISRDNAKNTVYLQMNSLKPEDTAVYYCASDRYGLGDYDYWGQGTQVTVSS | low polyreactivity
34 | QVQLVESGGGLVQAGGRLRLSCAASGRIFLPDGMGWYIQAAGKERELVATITIGGSSTYADSVKGRFTISRDNAKNTVNLQMNSLKPEHTAVYYCAVRRWVYYLHGYDYWGQGTQETVSS | low polyreactivity
35 | QVQLVESGGGLVQAGGRLRLSCAASGRIFRRYAMGWYRQAPGKERELVAAITSSGTSTHYADSVKGRFTISRDNAKNTVYLQMNSLKPEDTAVYYCAARYSTYPWYNYCGQGTQVTVSS | high polyreactivity
36 | QVQLVESGGGLVQAGGRLRLSCAASGRIFRYNAMGWYRQAPGKERELVASITSAGSTNYADSVKGRFTISRDNAKITVYLLMNSLKPEDTEVYYCNKRRAYGYYLFDYWGQGTQVTVSS | high polyreactivity
37 | QVQLVESGGGLVQAGGRLRLSCAASGRIFSTYAMGWYRQAPGKQRQLVAAINKSGGSTYYADSVKGRFTISRDTAKNTVYLQMNSLKPEDTAVYYCAADQSYPKRLPSFEYWGQGTQVTVSS | low polyreactivity
38 | QVQLVESGGGLVQAGGRLRLSCAASGRIFTYYVMGWYRQAPGKERELVASISGSGGRTYYADSVKGRFTISRDNAKNTVYLQMNSLKPEDTAVYYCATRLYKRTRTITYGYWGQGTQVTVSS | high polyreactivity
39 | QVQLVESGGGLVQAGGRLRLSCAASGRIFYNYAMGWYRQAPGKERELVAAISGSGGSTYYADSVKGRFTISRDNAKNTVYLQMNSLKPEDTAVYYCSTSGPQYYSRNFDYWGQGTQVTVSS | low polyreactivity
40 | QVQLVESGGGLVQAGGRLRLSCAASGRIFYNYAMGWYRQAPGKERELVASINFSGTRTYYADSVKGRFTISRDYAKNHVYLQMNSLKPEDTAVYYCAARQAHGYYYWGQGTQVTVSS | high polyreactivity
41 | QVQLVESGGGLVQAGGRLRLSCAASGRIGPNVMGWYRQPPGKERELVAAISRRGGSTYYADSVKGRFTISRDNAKNTVYLQMNSLKPEDTAVYYCAKDLYTLAVKGGDYWGQGTQVTVSS | high polyreactivity
42 | QVQLVESGGGLVQAGGRLRLSCAASGRTFAVYDMGWYIQAPGKERELVAAITYGGGRTYYADSVKGRFTISRDYAKNTVYLQMISLKPEDTSVYYCAADYYGTDYDYWGQGTQVTVSS | low polyreactivity
43 | QVQLVESGGGLVQAGGRLRLSCAASGRTFEGYAMAWYRQAPGKERELVAAISGSSGSTYYADSVKGRFTISRDNAKNTVYLQMNSLKPEDTAVYYCNADYDWPGGSDYWGQGTQVTVSS | low polyreactivity
